# Assay results taken from IntAct's records for PubMed 12732628.
# B1: Molybdopterin synthase sulfur carrier subunit (Homo sapiens), O96033 (parent)
# chain: MVPLCQVEVLYFAKSAEITGVRSETISVPQEIKALQLWKEIETRHPGLADVRNQIIFAVRQEYVELGDQLLVLQPGDEIAVIPPISGG
# partner: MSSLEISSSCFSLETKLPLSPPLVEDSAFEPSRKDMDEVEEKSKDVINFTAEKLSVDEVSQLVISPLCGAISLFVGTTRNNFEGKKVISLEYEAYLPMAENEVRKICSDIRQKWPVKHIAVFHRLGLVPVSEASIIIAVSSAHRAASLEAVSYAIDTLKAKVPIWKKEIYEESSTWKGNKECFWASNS
# Variants of: B1
# Conditions: with moc2b_human MOCS2, O96007
row,effect of a mutation on the interaction,Variant
1,disrupting interaction,V7F
